Test results reported in US20220162327A1, “ANTI-CCR5 AGENTS AND METHODS OF TREATMENT THAT BLOCK CANCER METASTASIS OR ENHANCE CELL DEATH INDUCED BY DNA DAMAGING CHEMOTHERAPY” (CytoDyn Inc., priority 2019, published 2022).
“Also recorded” adds a separate entry of the source. Where two headings read alike, the source gives them in different places.

Tests used:
[1] = system: breast cancer tumor model; assay: Breast cancer tumor model; format: in vivo
Description: C-C Chemokine receptor type-5 (CCR5) is selectively reexpressed on the surface of tumor cells during the dedifferentiation and transformation process (velasco-velazquez-2012).
Another cancer hallmark that CCR5 presents a potential role is the DNA repair pathways. This cancer characteristic attenuates apoptosis and contributes to chemotherapy resistance and tumor cells immortality. Studies have correlated the altered expression of C-C Chemokine Ligand type-5 (CCL5) with disease progression in patients with breast cancer [Luboshits, 1999] [Niwa, 2001] [Zhang, 2009].

[2] = Phase Ib/II study, safety; format: in vivo; conditions: Subject 706-001, at Cycle 6 Day 1 visit, weekly leronlimab and carboplatin every three weeks
Description: The primary objective of Phase 1b is to determine the safety, tolerability and maximum tolerate dose (MTD) of PRO 140 in patients with TNBC, when combined with carboplatin to define a recommended Phase II dose of the combination. The primary objective of phase 2b is to evaluate the impact on progression-free survival (PFS) of the combination PRO 140 and carboplatin in patients with CCR5+ TNBC previously treated with anthracyclines and taxanes in neoadjuvant and adjuvant setting.
(§1) Each treatment cycle consisted of 21 days. […] This treatment regimen was used for all subjects enrolled in the mTNBC study, unless otherwise indicated.

[3] = system: CCR5+ metastatic Triple Negative Breast Cancer; assay: Phase Ib/II study, CTC/EMT/CAML assessment in blood (LifeTrac Assay); format: in vivo, human
Description: as §1
The blood sample for circulating tumor cells (CTC) and cancer associated macrophage-like cells (CAMLs) assessment was collected at baseline and subsequently at Day 1 of each treatment cycle to assess changes in CTCs and CAMLs after treatment and to perform correlative analysis between CCR5 expression and PD-L1 expression.
Creatv Microtech has developed a size based technology and detection methodology (LifeTrac Assay) that enables the collection and characterization of all cancer associated cells in the blood i.e., CTCs, epithelial mesenchymal transition cells (EMTs) and CAMLs.[Adams Cytometry 2015, Adams RSC 2014]. The CellSieve™ filtration platform is used to capture CAMLs and CTCs.

CCR5 [4] = target: T1, CCR5 (Homo sapiens, UniProt P51681); design: endogenous in cells; host or cells: CD4+ T cells; conditions: cited from earlier work
MDA-MB-231 cells = assay: 3D-matrigel invasion assay, CCL5 as chemoattractant; format: cell-based, human
Description: FIG. 3A, FIG. 3B, FIG. 3C, and FIG. 3D. […] The ability of breast cancer cells to invade extra-cellular matrix is […] an important step in tumor metastasis (Zetter, 1990). To test the ability of PRO140 to block 3D-matrigel invasion assay, MDA-MB-231 cells were used. CCL5 was used as chemoattractant to induce invasion. The small molecule inhibitor of CCR5, vicriviroc, was used as a form of positive control.

CCR5 [5] = target: T1, CCR5; assay: FACS binding of leronlimab to CCR5 in MDA-MB-231-CCR5 cells; design: expressed in transfected cells; host or cells: MDA-MB-231 human breast cancer cell line (MDA-MB-231-CCR5)
Description: A previously tested commercial APC conjugated mouse anti-human/mouse/rat CCR5 antibody from R&D (FAB1802A) (APC-αCCR5) was used as a positive control to assess CCR5 positive cells.

[6] = system: MDA-MB-231 cells stable transfected with Luc2-GFP; assay: Mouse lung metastasis model, bioluminescence imaging; format: in vivo; conditions: mice, tail-vein injection, treated one day before injection
Protocol: FIG. 4A and FIG. 4B. Leronlimab block breast cancer metastasis in mice. […] MDA-MB-231 cells stable transfected with Luc2-GFP was injected into the mice through tail-vein. The mice in each group were treated one day before injection. The metastasis tumor formed in the lung was determined by bioluminescence imaging. […] The quantitative analysis of tumor size in each group was shown in (FIG. 4B). The size of tumors defined by photon flux (x10^8 p/sec/cm^2/sr).

[7] = Subject 706-001, C1D1, with carboplatin
[8] = Subject 706-001, C2D1, with carboplatin
[9] = Subject 706-001, C3D1, with carboplatin
[10] = Subject 706-001, C4D1, with carboplatin
[11] = Subject 706-001, C5D1, with carboplatin
[12] = Subject 706-001, C6D1, with carboplatin
[13] = second subject, after two weeks of treatment, with carboplatin

T1 sequence (P51681 whole entry): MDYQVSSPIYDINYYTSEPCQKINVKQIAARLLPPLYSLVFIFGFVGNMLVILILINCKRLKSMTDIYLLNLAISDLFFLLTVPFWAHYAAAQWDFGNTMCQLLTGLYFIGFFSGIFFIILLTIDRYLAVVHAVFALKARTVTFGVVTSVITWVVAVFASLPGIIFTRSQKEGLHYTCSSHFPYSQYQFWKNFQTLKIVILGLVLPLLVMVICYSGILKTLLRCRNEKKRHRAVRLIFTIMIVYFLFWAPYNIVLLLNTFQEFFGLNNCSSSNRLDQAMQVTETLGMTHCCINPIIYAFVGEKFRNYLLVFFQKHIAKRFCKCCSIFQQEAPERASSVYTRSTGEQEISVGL

B1: leronlimab: humanized monoclonal antibody to CCR5; humanized version of the murine mAb PA14 (antibody, chains of the INN, looked up, V domains shown)
VH: EVQLVESGGGLVKPGGSLRLSCAASGYTFSNYWIGWVRQAPGKGLEWIGDIYPGGNYIRNNEKFKDKTTLSADTSKNTAYLQMNSLKTEDTAVYYCGSSFGSNYVFAWFTYWGQGTLVTVSS
VL: DIVMTQSPLSLPVTPGEPASISCRSSQRLLSSYGHTYLHWYLQKPGQSPQLLIYEVSNRFSGVPDRFSGSGSGTDFTLKISRVEAEDVGVYYCSQSTHVPLTFGQGTKVEIK
tumor volume [1]: significant reduction in tumor volume | serious adverse events [2]: no serious adverse events had been reported | CAML-Total [3, 7]: 1 | CTC-Total [3, 7]: 0 | EMT-Total [3, 7]: 2 | Largest CAML, PD-L1 [3, 7]: 47 μm | Number of Apoptotic CTC, PD-L1 [3, 7]: 0 | Number of Apoptotic CTCs, CCR5 [3, 7]: 0 | Number of CAMLs, CCR5 [3, 7]: 0 | Number of CAMLs, PD-L1 [3, 7]: 1 | Number of CTCs, CCR5 [3, 7]: 0 | Number of CTCs, PD-L1 [3, 7]: 0 | Number of EMTs, CCR5 [3, 7]: 1 | Number of EMTs, PD-L1 [3, 7]: 1 | CAML-Total [3, 8]: 3 | CTC-Total [3, 8]: 0 | EMT-Total [3, 8]: 0 | Largest CAML, CCR5 [3, 8]: 27 μm | Largest CAML, PD-L1 [3, 8]: 69 μm | Number of Apoptotic CTC, PD-L1 [3, 8]: 0 | Number of Apoptotic CTCs, CCR5 [3, 8]: 0 | Number of CAMLs, CCR5 [3, 8]: 1 | Number of CAMLs, PD-L1 [3, 8]: 2 | Number of CTCs, CCR5 [3, 8]: 0 | Number of CTCs, PD-L1 [3, 8]: 0 | Number of EMTs, CCR5 [3, 8]: 0 | Number of EMTs, PD-L1 [3, 8]: 0 | Largest CAML, CCR5 [3, 9]: 39 μm | Largest CAML, PD-L1 [3, 9]: 30 μm | Number of Apoptotic CTC, PD-L1 [3, 9]: 0 | Number of Apoptotic CTCs, CCR5 [3, 9]: 0 | Number of CAMLs, CCR5 [3, 9]: 3 | Number of CAMLs, PD-L1 [3, 9]: 1 | Number of CTCs, CCR5 [3, 9]: 0 | Number of CTCs, PD-L1 [3, 9]: 0 | Number of EMTs, CCR5 [3, 9]: 0 | Number of EMTs, PD-L1 [3, 9]: 0 | CAML-Total [3, 10]: 1 | CTC-Total [3, 10]: 0 | EMT-Total [3, 10]: 0 | Largest CAML, CCR5 [3, 10]: 0 μm | Largest CAML, PD-L1 [3, 10]: 31 μm | Number of Apoptotic CTC, PD-L1 [3, 10]: 0 | Number of Apoptotic CTCs, CCR5 [3, 10]: 0 | Number of CAMLs, CCR5 [3, 10]: 0 | Number of CAMLs, PD-L1 [3, 10]: 1 | Number of CTCs, CCR5 [3, 10]: 0 | Number of CTCs, PD-L1 [3, 10]: 0 | Number of EMTs, CCR5 [3, 10]: 0 | Number of EMTs, PD-L1 [3, 10]: 0 | CAML-Total [3, 11]: 3 | CTC-Total [3, 11]: 0 | EMT-Total [3, 11]: 0 | Largest CAML, CCR5 [3, 11]: 33 μm | Largest CAML, PD-L1 [3, 11]: 56 μm | Number of Apoptotic CTC, PD-L1 [3, 11]: 0 | Number of Apoptotic CTCs, CCR5 [3, 11]: 0 | Number of CAMLs, CCR5 [3, 11]: 1 | Number of CAMLs, PD-L1 [3, 11]: 2 | Number of CTCs, CCR5 [3, 11]: 0 | Number of CTCs, PD-L1 [3, 11]: 0 | Number of EMTs, CCR5 [3, 11]: 0 | Number of EMTs, PD-L1 [3, 11]: 0 | CAML-Total [3, 12]: 8 | CTC-Total [3, 12]: 0 | EMT-Total [3, 12]: 0 | CCR5 expression on cancer-associated cells ([3]; first subject, after approximately 11 weeks of treatment): large reductions in CCR5 expression | circulating tumor cells (CTC) or putative metastatic tumor cells in the peripheral blood ([3]; first subject, following 16 weeks of treatment): no detectable circulating tumor cells (CTC) or putative metastatic tumor cells | levels of CTC [3, 13]: no detectable levels of CTC | reduction in EMT cells [3, 13]: 70% | CAML count ([3]; second subject, following at least two weeks of treatment, initial count 45): 30 | decrease of total CTC+EMT counts ([3]; third subject, first two weeks of treatment, with carboplatin): 75% | effect on cAMP levels (CCR5 [4]; added to CD4+ T cells alone): does not affect cAMP levels | effect on cAMP levels (CCR5 [4]; administered with CCL5): diminishes the effect of CCL5 on cAMP levels | effect on MDA-MB-231 cell invasion (MDA-MB-231 cells; 175 µg/ml): can effectively block MDA-MB-231 cell invasion | effect on MDA-MB-231 cell invasion (MDA-MB-231 cells; 350 µg/ml): can effectively block MDA-MB-231 cell invasion | effect on CCL5-induced cell invasion (MDA-MB-231 cells; vicriviroc as positive control): reduced CCL5-induced MDA-MB-231 breast cancer cell invasion with similar efficacy as vicriviroc; also recorded: blocked 3D matrigel invasion | efficiency of binding to CCR5 positive cells (CCR5 [5]): 98% | efficiency of binding to CCR5 positive cells (CCR5 [5]; listed as PRO140): up to 98% | breast cancer tumor metastasis to the lung [6]: blocks human breast cancer xenograft metastasis in mice; also recorded: dramatically decreased breast cancer tumor metastasis to the lung
